“Also recorded” adds a separate entry of the source.
Experiments:
Thymosin β-4 = experiment: Northern blot of ecdysone-induced Bit1 or AES cell lines; format: cell-based, human; details: ecdysone-inducible ECR-293 cell line expressing Bit1 or AES
Procedure: (§1) To determine whether the Bit1/AES pathway can regulate the transcription of genes other than Bcl-2, two stable cell lines were established expressing either-Bit1 or AES under control of an ecdysone-inducible promoter. To detect genes regulated by Bit1 or AES, probes were prepared from the ecdysone-induced cell lines and used to screen microarrays representing 19,000 human cDNAs. […] Down-regulation of HSP-70 and thymosin 4 in cells induced to express Bit1 or AES was confirmed by Northern blot analysis (see FIG. 7).
(§2) Northern blot analysis was performed as follows. Total RNA (10 μg) was electrophoresed on a 1% agarose-formaldehyde gel and transferred to nitrocellulose filters. The filters were hybridized using the same RNA probes as in the microarray experiments in Rapid-hyb buffer and washed according to the manufacturer's instructions (Amersham-Pharmacia).

[1] = system: Heat Shock 70 kD protein 1A; experiment: as above; format: cell-based, human; details: ecdysone-inducible ECR-293 cell line expressing Bit1 or AES
Procedure: as §1, §2

CHO cells [2] = experiment: Percentage of GFP-positive detached cells after transfection; format: cell-based, Chinese hamster; details: 48 hours after transfection, GFP fusion construct
Procedure: (§3) To determine if Bit1 and AES are both required for apoptosis induction, HEK 293T, HOP92, and CHO cells were transfected with a GFP (vector), GFP-Bit1, or GFP-AES fusion protein constructs, as indicated in FIG. 3E. The cells were examined 48 hours (HEK 293T and CHO) or 72 hours (HOP92) after transfection, and the percentage of GFP-positive detached cells was measured.

HEK 293T cells = experiment: as above; format: cell-based, human; details: 48 hours after transfection, GFP fusion construct
Procedure: as §3

Bcl-2 promoter = Bcl-2 promoter reporter assay in CHO cells; format: cell-based, Chinese hamster; details: CHO cells, 1 μg Bcl-2-luciferase reporter construct, 24 hours in culture
Description: The entire CGI-147 open reading frame encodes a 27-kDa protein with no sequence similarity to other proteins. […] To denote this inhibitory transcriptional activity, the Clone-3 gene was denoted Bit1 for Bcl-2 inhibitor of transcription.

CHO cells [3] = experiment: Scoring of rounded-up cells expressing GFP as dead cells; format: cell-based, Chinese hamster
Procedure: AES was assayed for pro-apoptotic activity in CHO cells transfected with a green fluorescent protein (GFP)-AES fusion protein. […] However, in HEK 293 cells, which express no detectable Bit1 by immunohistochemistry or Northern analysis, transfection of AES alone was not apoptotic.
Furthermore, apoptosis was measured in cells transfected with Bit1 (5 μg DNA), AES (5 μg DNA) or both (5 μg each). Rounded up cells expressing GFP were scored as dead cells 24 and 48 hours after the transfection.
To determine if TLE1 suppresses apoptosis induced by AES in CHO cells, cells were transfected with GFP-AES or GFP-TLE1 alone, or both. Cell death was assessed by scoring rounded-up cells expressing GFP 48 hours later.

19,000 human cDNAs = experiment: cDNA microarray analysis of ecdysone-induced Bit1 or AES cell lines; format: cell-based
Procedure: as §1
cDNA microarray analysis was performed as follows. Total RNA was purified 48 hours after treatment with 10 μM ponasterone A (Invitrogen; San Diego, Calif.) from the ecdysone inducible cell line ECR-293-Bit1 or ECR-293-AES according to the manufacturer's instructions (Qiagen; Valencia, Calif.). cDNA probes were generated and hybridized with a microarray containing 19,000 human cDNAs from Microarray Centre at University Health Network, Ontario Cancer institute. cDNAs were labeled with fluorescent dyes (Cy3 or Cy5) using reverse transcription. Arrays were processed and hybridized essentially as described in Iyer et al., Science 283:83-87 (1999). After hybridization, arrays were scanned to measure fluorescence using a ScanArray 4000 scanner (Perkin Elmer; Meriden, Conn.). Raw data files generated by scanner software were imported into ImaGene and Gene Spring for analysis. Experiments were performed in duplicate using color reversals.

[4] = system: Bit1-induced apoptosis in HEK 293 cells; experiment: Extracellular matrix proteins and Bit1-induced apoptosis, trypan blue staining; format: cell-based, human; details: HEK 293 cells plated onto coated dishes, 10 μg Bit1 plasmid, 48 hours
Procedure: Several extracellular matrix proteins were assayed for the ability to modulate Bit1-mediated apoptosis. Cells were plated onto bacterial culture dishes pre-coated overnight with fibronectin (Chemicon; Temecula; CA), vitronectin (SIGMA; St. Louis, Mo.) or type I collagen (SIGMA), and transfected and assayed for apoptosis as described above.
To analyze integrin involvement in protecting attached cells against the pro-apoptotic effect of Bit1, Bit1 cell lines expressing either α5β1 or αvβ1 as the main fibronectin receptor were compared. The two cell lines attach equally well to fibronectin but, like cytoplasmically truncated α5β1, αvβ1 fails to protect cells against apoptosis induced by serum deprivation (Zhang et al., supra, 1995; and Matter and Ruoslahti, supra, 2001).
Experiments with extracellular matrix proteins were performed as follows. Cells were plated onto uncoated tissue culture plates or onto bacterial culture plates coated with fibronectin, vitronectin or collagen, and allowed to attach in the presence of serum. The attachment was equal on all of these surfaces. The cells were then transfected with 10 μg of Bit1 expression plasmid; where indicated, cells were treated with a control IgG of unrelated specificity or monoclonal anti-human α5 antibody (Chemicon), both at 10 μg/ml. Cell death was measured by trypan blue staining 48 hours after the transfection.

CHO cells [5] = experiment: Deletion analysis, cell death by trypan blue exclusion; format: cell-based, Chinese hamster; details: 10 μg construct, trypan blue exclusion 48 hours after transfection
Procedure: The amino-terminal portion of Bit1 (residues 16-40) is hydrophobic and can serve as a transmembrane domain or signal peptide sequence. When the hydrophobicity of this portion was reduced by substitution of glycine 22 and glycine 38 by serine, Bit1 apoptotic activity was reduced.
Deletion analysis was performed as follows. The indicated deletion mutants were cloned into vector pEGFP-C1, and 10 μg of each plasmid construct transfected into CHO cells. Cell death was measured by trypan blue exclusion 48 hours after transfection.
To delineate the pro-apoptotic domain of AES, a series of AES deletion mutants was prepared as amino-terminal fusions with GFP in vector pEGFP-C1. Various AES deletion constructs (10 μg) were transfected into CHO cells, and cell death measured by trypan blue exclusion 48 hours after transfection.

[6] = system: Bit1-induced apoptosis in HEK 293 cells; experiment: Co-transfection of Bit1 with anti-apoptotic proteins; format: cell-based, human; details: HEK 293 cells co-transfected with Bit1
Procedure: Co-transfections were performed with cells plated on non-coated dishes transfected with 5 μg Bit1 plasmid alone or together with 10 μg dominant negative (DN) R-Ras, or activated H-Ras plasmid (Zou et al., Proc. Natl. Acad. Sci. USA 96: 13813-13818 (1999)). […] Expression of the transfected proteins was confirmed by immunoblotting. Apoptosis was assayed as described above.

B1: AES: human AES, 197 residue Groucho/TLE family protein (SEQ ID NO:6) that associates with Bit1 (protein, listed as Homo sapiens)
chain: MMFPQSRHSGSSHLPQQLKFTTSDSCDRIKDEFQLLQAQYHSLKLECDKLASEKSEMQRHYVMYYEMSYGLNIEMHKQAEIVKRLNGICAQVLPYLSQEHQQQVLGAIERAKQVTAPELNSIIRQQLQAHQLSQLQALALPLTPLPVGLQPPSLPAVSAGTGLLSLSALGSQAHLSKEDKNGHDGDTHQEDDGEKSD
With B1 the “Northern result, suppression of Thymosin β-4” value (Thymosin β-4) was 4 fold, the “Northern result, suppression of Heat Shock 70 kD protein 1A” value [1] was 3 fold and the “apoptosis induction in CHO cells” value (CHO cells [2]) was “induced apoptosis”. For the same molecule, the “effect on viability of 293T cells” value (HEK 293T cells) was “no effect on the viability”, the Bcl-2 promoter activity (Bcl-2 promoter) was “down-regulate” and the “time within which CHO cells receiving GFP-AES died” value (CHO cells [3]; GFP-AES fusion protein) was no more than 48 h. The Bcl-2 expression (19,000 human cDNAs; Bit1 and AES stable cell lines) was “not measurably altered”, the “Microarray result: gene induced” value (19,000 human cDNAs; at least a two-fold induction, value is the gene) was “DNA replication licensing factor; also recorded: NIK-related kinase 17; also recorded: CMP-N-acetylneuraminic acid” and the “Microarray result: gene suppressed” value (19,000 human cDNAs; at least a two-fold suppression, value is the gene) was “Heat shock 70 KD protein 1A; also recorded: Thymosin β-4; also recorded: KCNAB2; also recorded: FLJ10386; also recorded: NET-5; also recorded: SRY-related HMG-box gene 4”.

B2: vitronectin: extracellular matrix protein coated on culture dishes (SIGMA) (protein, UniProt P04004 20-478, looked up)
Vitronectin: DQESCKGRCTEGFNVDKKCQCDELCSYYQSCCTDYTAECKPQVTRGDVFTMPEDEYTVYDDGEEKNNATVHEQVGGPSLTSDLQAQSKGNPEQTPVLKPEEEAPAPEVGASKPEGIDSRPETLHPGRPQPPAEEELCSGKPFDAFTDLKNGSLFAFRGQYCYELDEKAVRPGYPKLIRDVWGIEGPIDAAFTRINCQGKTYLFKGSQYWRFEDGVLDPDYPRNISDGFDGIPDNVDAALALPAHSYSGRERVYFFKGKQYWEYQFQHQPSQEECEGSSLSAVFEHFAMMQRDSWEDIFELLFWGRTSAGTRQPQFISRDWHGVPGQVDAAMAGRIYISGMAPRPSLAKKQRFRHRNRKGYRSQRGHSRGRNQNSRRPSRATWLSLFSSEESNLGANNYDDYRMDWLVPATCEPIQSVFFFSGDKYYRVNLRTRRVDTVDPPYPRSIAQYWLGCPAPGHL
With B2 the “protection from Bit1-induced apoptosis” value [4] was “largely protected”.

B3: TLE2: TLE family protein (protein, UniProt Q04725 1-743, looked up)
Transducin-like enhancer …: MYPQGRHPTPLQSGQPFKFSILEICDRIKEEFQFLQAQYHSLKLECEKLASEKTEMQRHYVMYYEMSYGLNIEMHKQAEIVKRLSGICAQIIPFLTQEHQQQVLQAVERAKQVTVGELNSLIGQQLQPLSHHAPPVPLTPRPAGLVGGSATGLLALSGALAAQAQLAAAVKEDRAGVEAEGSRVERAPSRSASPSPPESLVEEERPSGPGGGGKQRADEKEPSGPYESDEDKSDYNLVVDEDQPSEPPSPATTPCGKVPICIPARRDLVDSPASLASSLGSPLPRAKELILNDLPASTPASKSCDSSPPQDASTPGPSSASHLCQLAAKPAPSTDSVALRSPLTLSSPFTTSFSLGSHSTLNGDLSVPSSYVSLHLSPQVSSSVVYGRSPVMAFESHPHLRGSSVSSSLPSIPGGKPAYSFHVSADGQMQPVPFPSDALVGAGIPRHARQLHTLAHGEVVCAVTISGSTQHVYTGGKGCVKVWDVGQPGAKTPVAQLDCLNRDNYIRSCKLLPDGRSLIVGGEASTLSIWDLAAPTPRIKAELTSSAPACYALAVSPDAKVCFSCCSDGNIVVWDLQNQTMVRQFQGHTDGASCIDISDYGTRLWTGGLDNTVRCWDLREGRQLQQHDFSSQIFSLGHCPNQDWLAVGMESSNVEILHVRKPEKYQLHLHESCVLSLKFASCGRWFVSTGKDNLLNAWRTPYGASIFQSKESSSVLSCDISRNNKYIVTGSGDKKATVYEVVY
B3 was tested, and the “effect on apoptosis induced by AES” value (CHO cells [3]; rounded-up GFP cells scored 48 hours later) was “modestly suppresses”.

B4: AES residues 106-197: AES deletion mutant, amino-terminal fusion with GFP (protein, UniProt Q08117 106-197, looked up, fragment)
chain: GAIERAKQVTAPELNSIIRQQLQAHQLSQLQALALPLTPLPVGLQPPSLPAVSAGTGLLSLSALGSQAHLSKEDKNGHDGDTHQEDDGEKSD
modifications: GFP fusion
notes: AES deletion mutant, amino-terminal fusion with GFP
With B4 the “pro-apoptotic activity of deletion constructs” value (CHO cells [5]) was “no apoptotic activity”.

B5: p35: caspase inhibitor protein, transfected expression construct (protein, UniProt P08160 1-299, looked up)
Early 35 kDa protein: MCVIFPVEIDVSQTIIRDCQVDKQTRELVYINKIMNTQLTKPVLMMFNISGPIRSVTRKNNNLRDRIKSKVDEQFDQLERDYSDQMDGFHDSIKYFKDEHYSVSCQNGSVLKSKFAKILKSHDYTDKKSIEAYEKYCLPKLVDERNDYYVAVCVLKPGFENGSNQVLSFEYNPIGNKVIVPFAHEINDTGLYEYDVVAYVDSVQFDGEQFEEFVQSLILPSSFKNSEKVLYYNEASKNKSMIYKALEFTTESSWGKSEKYNWKIFCNGFIYDKKSKVLYVKLHNVTSALNKNVILNTIK
For B5, the “effect on apoptosis induced by Bit1” value [6] was “little or no effect”.
